Measurements published in patent US20030157712A1, “Methods for determining cell responses through EphB receptors” (priority 1997, published 2003).

Columns and labels:
EphB1 = molecular target: T1, EphB1 (Homo sapiens, UniProt P54762); assay: EphB1 immunoprecipitation and phosphotyrosine immunoblot; type: cell-based; details: endothelial cells on adsorbed ligand
T1 construct: Ligand stimulation and immunoprecipitation of endogenous EphB receptors; endogenous in cells; host or cells: HRMEC (human); P19 (murine teratocarcinoma) in part of the results
T1 sequence (P54762 18-984): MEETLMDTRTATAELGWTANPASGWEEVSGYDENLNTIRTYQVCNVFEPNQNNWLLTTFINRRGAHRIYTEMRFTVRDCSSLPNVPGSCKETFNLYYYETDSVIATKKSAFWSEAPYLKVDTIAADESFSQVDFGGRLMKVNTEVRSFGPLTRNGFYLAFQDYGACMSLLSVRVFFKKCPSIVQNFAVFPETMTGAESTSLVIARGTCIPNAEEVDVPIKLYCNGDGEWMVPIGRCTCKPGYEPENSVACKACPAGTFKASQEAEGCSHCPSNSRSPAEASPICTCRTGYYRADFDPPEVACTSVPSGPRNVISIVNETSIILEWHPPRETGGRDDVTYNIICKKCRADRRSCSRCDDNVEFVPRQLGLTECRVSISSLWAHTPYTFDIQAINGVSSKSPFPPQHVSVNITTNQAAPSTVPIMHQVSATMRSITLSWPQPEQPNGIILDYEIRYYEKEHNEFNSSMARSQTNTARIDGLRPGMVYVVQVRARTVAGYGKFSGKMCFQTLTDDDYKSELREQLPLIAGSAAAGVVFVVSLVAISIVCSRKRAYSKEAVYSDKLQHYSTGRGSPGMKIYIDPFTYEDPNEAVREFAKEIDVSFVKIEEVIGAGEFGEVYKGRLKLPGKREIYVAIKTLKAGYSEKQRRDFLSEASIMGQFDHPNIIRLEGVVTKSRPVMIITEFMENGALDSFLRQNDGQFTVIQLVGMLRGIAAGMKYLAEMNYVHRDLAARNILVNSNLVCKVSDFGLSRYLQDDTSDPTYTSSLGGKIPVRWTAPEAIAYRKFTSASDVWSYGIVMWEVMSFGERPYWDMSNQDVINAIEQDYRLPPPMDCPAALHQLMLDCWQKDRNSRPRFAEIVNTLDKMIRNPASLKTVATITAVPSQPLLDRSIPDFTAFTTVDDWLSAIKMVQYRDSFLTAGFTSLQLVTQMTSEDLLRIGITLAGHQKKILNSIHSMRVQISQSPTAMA

HRMEC = assay: Endothelial assembly into capillary-like structures (HRMEC); type: cell-based, human; details: HRMEC on Matrigel, two dimensional in vitro assay, 8 h
Experimental: Endothelial assembly into capillary-like structures. Twelve well plates (Falcon) were coated with thin layers of Matrigel. HRMEC were plated at a density of 4×10^4 cells/well in DME containing 1% fetal bovine serum. Indicated agonists, control peptides, alone, or in combination with the EphB1/Fc antagonist (1000 ng ml^−1) (FIG. 5) were added at the time of plating. Cells were incubated at 37° C. for 8 h and photographed using phase microscopy (magnification 100×) (Diaphot-TMD, Nikon).

P19 cells = assay: Cell adhesion assay (P19); type: cell-based, murine; details: fibronectin coated dishes, 90 min
Experimental: Cell adhesion assay. Six well plates (Falcon) were coated with thin layers of Matrigel or with 0.5 μg cm^2 fibronectin (29). Growth medium was replaced 48 h before harvest with binding medium, either DMEM (HRMEC) or ∝-MEM (P19) containing 1% bovine albumin. Cells were recovered by trypsinization (HRMEC) or vigorous tituration (P19) and washed three times with binding medium and plated at 1×10^5 cells per well. Ligands were added coincident with plating at concentrations indicated above. After 90 min, unattached cells were dislodged by applying 4 brisk slaps of the plate on a horizontal surface, and the attached cell layer was carefully washed once with PBS containing calcium and magnesium to collect the remaining unattached cells. Attached cells were collected after incubation in Dispase (Collaborative Biomedical Products). Separate fractions were recovered by centrifugation, washed once and trypan blue excluding cells counted visually using a hemocytomer. The ratio of attached to total number of cells recovered were calculated for each of three wells. Data are expressed as mean+/−SEM and are representative of three independent experiments.

[1] = system: Grb2 and Grb10 and Nck recruitment to EphB1 complexes; assay: Recruitment of SH2-containing adapter proteins to EphB1 complexes; type: cell-based
Experimental: Ligand stimulation and immunoprecipitation of endogenous EphB receptors. Primary HRMEC were used at passages 3-6, as described (12). P19 cells were cultured as recommended (ATCC, Rockville, Md.). Ninety min prior to ligand stimulation, cells (2×10^5cells/60 mm dish) were plated on Matrigel-(Collaborative Biomedical Products, Becton Dickinson, Bedford, Mass., as recommended) or fibronectin-coated (29) dishes. Ligand (ephrin-B1/Fc) or control (ORF/Fc) (30) multimers were generated by preincubation with anti-Fc at a fixed ratio of 0.1× the indicated concentrations of Fc fusion proteins [50 ng ml^−1 anti-Fc for 500 ng ml^−1 Fc fusion protein]. If not otherwise indicated, Fc fusion proteins (ephrinB1/Fc or ORF/Fc) were used at 500 ng ml^−1 in the absence or presence of preclustering anti-Fc at 50 ng ml^−1. Cells were incubated with agonists at 37° C. for 10 min, or as described in the figure legends. […] Precipitated proteins were analyzed by immunoblot (15).
It was reasoned that alternative signaling responses mediated through EphB receptors might reflect differential association of additional receptor signaling complex components. […] Accordingly, EphB1 immunoprecipitates were analyzed for LMW-PTP immunoreactivity (11,17).

EphB1 receptor activation at densities greater than 300 ng/cm^2 (EphB1): did not show a decrement
adsorption densities stimulating EphB1 receptor activation (EphB1; phosphotyrosine immunoblot): greater than 100 ng/cm^2
B1: ephrin-B1/Fc dimers: disulfide-linked immunoglobulin Fc fusion form of ephrin-B1 (protein)
chain: LAKNLEPVSWSSLNPKFLSGKGLVIYPKIGDKLDIICPRAEAGRPYEYYKLYLVRPEQAAACSTVLDPNVLVTCNRPEQEIRFTIKFQEFSPNYMGLEFKKHHDYYITSTSNGSLEGLENREGGVCRTRTMKIIMKVGQDPNAVTPEQLTTSRPSKEADNTVKMATQAPGSRGSLGDSDGKHETVNQEEKSGPGASGGSSGDPDGFFNSK
modifications: left off: a dimerising Fc or GST
endothelial capillary-like assembly (HRMEC): did not
P19 attachment to fibronectin (P19 cells): modest effect to decrease
recruitment of Grb2, Grb10 and Nck to EphB1 complexes, dimeric vs multimeric ligand [1]: did not differ
